Measurements as given in patent US20110118447A1.

Experiments:
[1] = biological target: binding partner of C5A (XPA23); test: Biacore K-off
[2] = biological target: binding partner of C5A (XPA23); test: Biacore

Binder	fold difference in affinity vs original [1]	fold affinity vs original [2]	fold difference in affinity vs original [2]
C5A (XPA23) VH Y32S (antibody, V domains shown) VH: EVQLLESGGGLVQPGGSLRLSCAASGFTFSKSFMFWVRQAPGKGLEWVSVISPSGGMTRYADSVKGRFTISRDNSKNTLYLQMNSLRAEDTAVYYCARVGYGGNSDYWGQGTLVTVSS VL: DIQMTQSPSSVSASVGDRLTIICRASQDINRWLAWYQQTPGNAPKLLIHSATSLQSGVPSRFSGSGSGTDFTLTINSLQPEDFATYYCQQADSFPLTFGGGTKVEIK	1.33 fold	1.33 fold	
C5A (XPA23) VH K31L (antibody, V domains shown) VH: EVQLLESGGGLVQPGGSLRLSCAASGFTFSLYFMFWVRQAPGKGLEWVSVISPSGGMTRYADSVKGRFTISRDNSKNTLYLQMNSLRAEDTAVYYCARVGYGGNSDYWGQGTLVTVSS VL: DIQMTQSPSSVSASVGDRLTIICRASQDINRWLAWYQQTPGNAPKLLIHSATSLQSGVPSRFSGSGSGTDFTLTINSLQPEDFATYYCQQADSFPLTFGGGTKVEIK	1.08 fold		1.08 fold
C5A (XPA23) VH F33K (antibody, V domains shown) VH: EVQLLESGGGLVQPGGSLRLSCAASGFTFSKYKMFWVRQAPGKGLEWVSVISPSGGMTRYADSVKGRFTISRDNSKNTLYLQMNSLRAEDTAVYYCARVGYGGNSDYWGQGTLVTVSS VL: DIQMTQSPSSVSASVGDRLTIICRASQDINRWLAWYQQTPGNAPKLLIHSATSLQSGVPSRFSGSGSGTDFTLTINSLQPEDFATYYCQQADSFPLTFGGGTKVEIK	0.85 fold	0.85 fold	
C5A (XPA23) VH F33N (antibody, V domains shown) VH: EVQLLESGGGLVQPGGSLRLSCAASGFTFSKYNMFWVRQAPGKGLEWVSVISPSGGMTRYADSVKGRFTISRDNSKNTLYLQMNSLRAEDTAVYYCARVGYGGNSDYWGQGTLVTVSS VL: DIQMTQSPSSVSASVGDRLTIICRASQDINRWLAWYQQTPGNAPKLLIHSATSLQSGVPSRFSGSGSGTDFTLTINSLQPEDFATYYCQQADSFPLTFGGGTKVEIK	0.97 fold	0.97 fold	
C5A (XPA23) VH K31I (antibody, V domains shown) VH: EVQLLESGGGLVQPGGSLRLSCAASGFTFSIYFMFWVRQAPGKGLEWVSVISPSGGMTRYADSVKGRFTISRDNSKNTLYLQMNSLRAEDTAVYYCARVGYGGNSDYWGQGTLVTVSS VL: DIQMTQSPSSVSASVGDRLTIICRASQDINRWLAWYQQTPGNAPKLLIHSATSLQSGVPSRFSGSGSGTDFTLTINSLQPEDFATYYCQQADSFPLTFGGGTKVEIK	0.74 fold		0.74 fold
C5A (XPA23) VH S30G (antibody, V domains shown) VH: EVQLLESGGGLVQPGGSLRLSCAASGFTFGKYFMFWVRQAPGKGLEWVSVISPSGGMTRYADSVKGRFTISRDNSKNTLYLQMNSLRAEDTAVYYCARVGYGGNSDYWGQGTLVTVSS VL: DIQMTQSPSSVSASVGDRLTIICRASQDINRWLAWYQQTPGNAPKLLIHSATSLQSGVPSRFSGSGSGTDFTLTINSLQPEDFATYYCQQADSFPLTFGGGTKVEIK	0.13 fold		0.13 fold
C5A (XPA23) VH F33S (antibody, V domains shown) VH: EVQLLESGGGLVQPGGSLRLSCAASGFTFSKYSMFWVRQAPGKGLEWVSVISPSGGMTRYADSVKGRFTISRDNSKNTLYLQMNSLRAEDTAVYYCARVGYGGNSDYWGQGTLVTVSS VL: DIQMTQSPSSVSASVGDRLTIICRASQDINRWLAWYQQTPGNAPKLLIHSATSLQSGVPSRFSGSGSGTDFTLTINSLQPEDFATYYCQQADSFPLTFGGGTKVEIK	0.73 fold	0.73 fold	
C5A (XPA23) VH F33Q (antibody, V domains shown) VH: EVQLLESGGGLVQPGGSLRLSCAASGFTFSKYQMFWVRQAPGKGLEWVSVISPSGGMTRYADSVKGRFTISRDNSKNTLYLQMNSLRAEDTAVYYCARVGYGGNSDYWGQGTLVTVSS VL: DIQMTQSPSSVSASVGDRLTIICRASQDINRWLAWYQQTPGNAPKLLIHSATSLQSGVPSRFSGSGSGTDFTLTINSLQPEDFATYYCQQADSFPLTFGGGTKVEIK	0.78 fold	0.78 fold	
C5A (XPA23) VH Y32N (antibody, V domains shown) VH: EVQLLESGGGLVQPGGSLRLSCAASGFTFSKNFMFWVRQAPGKGLEWVSVISPSGGMTRYADSVKGRFTISRDNSKNTLYLQMNSLRAEDTAVYYCARVGYGGNSDYWGQGTLVTVSS VL: DIQMTQSPSSVSASVGDRLTIICRASQDINRWLAWYQQTPGNAPKLLIHSATSLQSGVPSRFSGSGSGTDFTLTINSLQPEDFATYYCQQADSFPLTFGGGTKVEIK	0.04 fold	0.04 fold	
C5A (XPA23) VH S30A (antibody, V domains shown) VH: EVQLLESGGGLVQPGGSLRLSCAASGFTFAKYFMFWVRQAPGKGLEWVSVISPSGGMTRYADSVKGRFTISRDNSKNTLYLQMNSLRAEDTAVYYCARVGYGGNSDYWGQGTLVTVSS VL: DIQMTQSPSSVSASVGDRLTIICRASQDINRWLAWYQQTPGNAPKLLIHSATSLQSGVPSRFSGSGSGTDFTLTINSLQPEDFATYYCQQADSFPLTFGGGTKVEIK	0.77 fold		0.77 fold
C5A (XPA23) VH F33D (antibody, V domains shown) VH: EVQLLESGGGLVQPGGSLRLSCAASGFTFSKYDMFWVRQAPGKGLEWVSVISPSGGMTRYADSVKGRFTISRDNSKNTLYLQMNSLRAEDTAVYYCARVGYGGNSDYWGQGTLVTVSS VL: DIQMTQSPSSVSASVGDRLTIICRASQDINRWLAWYQQTPGNAPKLLIHSATSLQSGVPSRFSGSGSGTDFTLTINSLQPEDFATYYCQQADSFPLTFGGGTKVEIK	0.92 fold	0.92 fold	
C5A (XPA23) VH Y32T (antibody, V domains shown) VH: EVQLLESGGGLVQPGGSLRLSCAASGFTFSKTFMFWVRQAPGKGLEWVSVISPSGGMTRYADSVKGRFTISRDNSKNTLYLQMNSLRAEDTAVYYCARVGYGGNSDYWGQGTLVTVSS VL: DIQMTQSPSSVSASVGDRLTIICRASQDINRWLAWYQQTPGNAPKLLIHSATSLQSGVPSRFSGSGSGTDFTLTINSLQPEDFATYYCQQADSFPLTFGGGTKVEIK	0.8 fold		0.8 fold
C5A (XPA23) VH S30W (antibody, V domains shown) VH: EVQLLESGGGLVQPGGSLRLSCAASGFTFWKYFMFWVRQAPGKGLEWVSVISPSGGMTRYADSVKGRFTISRDNSKNTLYLQMNSLRAEDTAVYYCARVGYGGNSDYWGQGTLVTVSS VL: DIQMTQSPSSVSASVGDRLTIICRASQDINRWLAWYQQTPGNAPKLLIHSATSLQSGVPSRFSGSGSGTDFTLTINSLQPEDFATYYCQQADSFPLTFGGGTKVEIK	0.77 fold	0.77 fold	
C5A (XPA23) VH S30L (antibody, V domains shown) VH: EVQLLESGGGLVQPGGSLRLSCAASGFTFLKYFMFWVRQAPGKGLEWVSVISPSGGMTRYADSVKGRFTISRDNSKNTLYLQMNSLRAEDTAVYYCARVGYGGNSDYWGQGTLVTVSS VL: DIQMTQSPSSVSASVGDRLTIICRASQDINRWLAWYQQTPGNAPKLLIHSATSLQSGVPSRFSGSGSGTDFTLTINSLQPEDFATYYCQQADSFPLTFGGGTKVEIK	0.91 fold		0.91 fold
C5A (XPA23) VH K31V (antibody, V domains shown) VH: EVQLLESGGGLVQPGGSLRLSCAASGFTFSVYFMFWVRQAPGKGLEWVSVISPSGGMTRYADSVKGRFTISRDNSKNTLYLQMNSLRAEDTAVYYCARVGYGGNSDYWGQGTLVTVSS VL: DIQMTQSPSSVSASVGDRLTIICRASQDINRWLAWYQQTPGNAPKLLIHSATSLQSGVPSRFSGSGSGTDFTLTINSLQPEDFATYYCQQADSFPLTFGGGTKVEIK	0.81 fold		0.81 fold
C5A (XPA23) VH S30I (antibody, V domains shown) VH: EVQLLESGGGLVQPGGSLRLSCAASGFTFIKYFMFWVRQAPGKGLEWVSVISPSGGMTRYADSVKGRFTISRDNSKNTLYLQMNSLRAEDTAVYYCARVGYGGNSDYWGQGTLVTVSS VL: DIQMTQSPSSVSASVGDRLTIICRASQDINRWLAWYQQTPGNAPKLLIHSATSLQSGVPSRFSGSGSGTDFTLTINSLQPEDFATYYCQQADSFPLTFGGGTKVEIK	0.08 fold		0.08 fold
C5A (XPA23) VH F33T (antibody, V domains shown) VH: EVQLLESGGGLVQPGGSLRLSCAASGFTFSKYTMFWVRQAPGKGLEWVSVISPSGGMTRYADSVKGRFTISRDNSKNTLYLQMNSLRAEDTAVYYCARVGYGGNSDYWGQGTLVTVSS VL: DIQMTQSPSSVSASVGDRLTIICRASQDINRWLAWYQQTPGNAPKLLIHSATSLQSGVPSRFSGSGSGTDFTLTINSLQPEDFATYYCQQADSFPLTFGGGTKVEIK	0.78 fold		0.78 fold
C5A (XPA23) VH K31F (antibody, V domains shown) VH: EVQLLESGGGLVQPGGSLRLSCAASGFTFSFYFMFWVRQAPGKGLEWVSVISPSGGMTRYADSVKGRFTISRDNSKNTLYLQMNSLRAEDTAVYYCARVGYGGNSDYWGQGTLVTVSS VL: DIQMTQSPSSVSASVGDRLTIICRASQDINRWLAWYQQTPGNAPKLLIHSATSLQSGVPSRFSGSGSGTDFTLTINSLQPEDFATYYCQQADSFPLTFGGGTKVEIK	0.05 fold	0.05 fold	
C5A (XPA23) VH F33Y (antibody, V domains shown) VH: EVQLLESGGGLVQPGGSLRLSCAASGFTFSKYYMFWVRQAPGKGLEWVSVISPSGGMTRYADSVKGRFTISRDNSKNTLYLQMNSLRAEDTAVYYCARVGYGGNSDYWGQGTLVTVSS VL: DIQMTQSPSSVSASVGDRLTIICRASQDINRWLAWYQQTPGNAPKLLIHSATSLQSGVPSRFSGSGSGTDFTLTINSLQPEDFATYYCQQADSFPLTFGGGTKVEIK	0.77 fold	0.77 fold	
C5A (XPA23) VH F33E (antibody, V domains shown) VH: EVQLLESGGGLVQPGGSLRLSCAASGFTFSKYEMFWVRQAPGKGLEWVSVISPSGGMTRYADSVKGRFTISRDNSKNTLYLQMNSLRAEDTAVYYCARVGYGGNSDYWGQGTLVTVSS VL: DIQMTQSPSSVSASVGDRLTIICRASQDINRWLAWYQQTPGNAPKLLIHSATSLQSGVPSRFSGSGSGTDFTLTINSLQPEDFATYYCQQADSFPLTFGGGTKVEIK	0.86 fold	0.86 fold	
